Data as given in paper PMC9860306.
pKd: −log10 of the molar value.

What was measured:
[1] = molecular target: rituximab, galactosylated afucosylated (G2) glycoform (human); assay: SPR; KD2 (second site)
[2] = molecular target: rituximab, galactosylated fucosylated (G2F) glycoform (human); assay: SPR; KD2 (second site)
[3] = molecular target: rituximab, galactosylated afucosylated (G2) glycoform (human); assay: SPR; KD1
[4] = molecular target: rituximab, galactosylated fucosylated (G2F) glycoform (human); assay: SPR; KD1

Chain of rituximab, galactosylated fucosylated (G2F) glycoform (human) (main, as listed by the source, chain 1 of 2): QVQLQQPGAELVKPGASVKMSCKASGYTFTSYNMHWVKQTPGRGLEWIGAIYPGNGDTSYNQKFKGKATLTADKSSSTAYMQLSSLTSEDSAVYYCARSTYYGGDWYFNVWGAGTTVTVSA
Chain of rituximab, galactosylated fucosylated (G2F) glycoform (human) (partner, as listed by the source, chain 2 of 2): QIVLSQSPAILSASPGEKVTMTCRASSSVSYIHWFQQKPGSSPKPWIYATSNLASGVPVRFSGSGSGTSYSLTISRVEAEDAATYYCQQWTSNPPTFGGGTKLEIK
Chain of rituximab, galactosylated afucosylated (G2) glycoform (human) (main, as listed by the source, chain 1 of 2): as the sequence (main, as listed by the source, chain 1 of 2) above
Chain of rituximab, galactosylated afucosylated (G2) glycoform (human) (partner, as listed by the source, chain 2 of 2): as the sequence (partner, as listed by the source, chain 2 of 2) above

- pKd [1]: 8.64
- pKd [2]: 8.64
- pKd [3]: 7.52
- pKd [4]: 7.26
Substance: FcγRIIIA(V) tetramer
